Here are results for 20 sequences from the DeepSol protein solubility set.

A short description of the series: soluble on expression in E. coli; label from the status in PepcDB or PDB records.
Regarding “MASFIDLSSADLSPLSGALHGPDRVARALLIQGGALVPPRPMLWPCAGDMLNGLHILGDLHAPDVDLLVAKRVVAGGSGAHLKLDDQLVYAEGAYPYYVQHWYQHDIARQAWDFDAPVTHRLDRAFVITHFNFVWGHWLTEMYPKLFVIRALNAAGITAPLLLPRTAPGYVARIVRMMLPDQEIVTYDPRDEAVEIGAALLPHMLNRNYVFHDFLRWNLEREALSFTKGGDADMLFVSRGGVRTAQSFRELENEAEIEGLAQEAGLTLVRPETLGWDQQARLFSRARLVAGEFGSGLHNALLSPQGCQVVSLNWLVEVQSRIGNFRRHDVGYILPADGQARLYSIEPQANQPFTIDPVEFRQKLAIAVDRAQARKAMAGWDDAPFPVDTPELRLLEHHHHHH”, the “soluble on expression in E. coli” value is “soluble”.
With “MSSKNEQTPKVPAELDPLNETIFREQMYAIYQVCQYPSKEQYAEWAQTYQIQQRRIRKWFDNRRTRDRERRKRKGDDNEDSSEISKRGRVTCGLDYKNHEEESTDDFQDDIEELDNSQFEMAKVSSIRDELKDVKSESPPVMEQSFHLRTVQHVSTPRRDRIIPESQTLFVPAGCSLDYEKWTPAEFLQWTSNFLSSAQAMDIIKSQEISGDTMESFFDDPDFRKETGMPYGPFQTIKKHAATVINRFNGYE” the entry was “not soluble”.
“VPGILMCEIFIRANQRSYSVQARSLRLHGVATSVRLEQLFWDVLEEIAARDGMRVTQLIERLYDELVQYRGEAANFTSFLRVCCLRYQVLQAEGRIPADATVPIRSLDAQAVLRGLPANLYDSR”: the “soluble on expression in E. coli” value is “not soluble”.
With “MSLRARYKQLVDTFAADIRTGILAPGTRLPTHRELAAREGLALVTASRVYAELEAMGLVSGETGRGTYVRETALPPGQGVDQPATAPGTLDLNFNYPALPGQAELLRSALRQLAATGDLEALLRYQPHAGRSHERATVARYLAGHGLVVEGEQVLLVSGAQHGLSTTLMALLRPGDVVAVDALTYPGFKVVAEAHGLELLAIPLSEQGPDLEAFERLCQRRRVRAVYAMPTLHNPMGWVLDLAWRQRLVAIGRAHGLLIIEDAAYAFLAQDPPAPLAALAPEITVYISGFSKNVATGLRVGYVVAPPAWVALIERAIRTSTWNTPGVMTAMACAWIEDGTVARLEHQKREDAQARQALAREALAGLAYVSHPNSYFLWLPLPEEVRADQVAMALLREKVSVSTAEPFVGAGPVPHAIRLALGSVAMADLGVALARVRQVIGRYAFEGHHHHHH” the entry was “soluble”; with “MGSDKIHHHHHHMNILVSNGEEHVNQTIASFFHQRGDRPILLFTEKEKHLEYVAGHPEQEAVLCTTYEEETLAAMVKEAFEEEAIDVLVHGNEMVNEAELLERDPSSLNEVVQKALYHLFLLNKVVVRDMVKRKQGKIIFPLFYDPLYYAGYASSPILNQAKLSLMKCMSRELGAFKINVNSITFGYYNDQFTREEKKATKSQVEIFCLKPKLPEIEEYVHSIGLLVDPSASLIGGENLHVGAGIETGI”, “not soluble”.
Consider “MGSDKIHHHHHHAVVPGKKDFINENTPGSKVVQTPEGAWFKDDKNRQEWSITSEDGLRLKAIYLPADKKSNRTVIMAHGYMGSAETMSVFAKMYHDWGYNVLAPDARGHGKSQGDYIGFGWPDRKDYVQWIEKVLTENGQQEQITLYGVSMGAATVMMTSGEKLPDNVKAIVEDCGYSTVNQELQYQLKELFNLPSFPLVNVTSGITKLRAGYFFGEASAVKQLQKNHLPMLFIHGENDTFVPFSMLDEVYNATQGPKEKYVVPGAEHAKAYNKNPEKYKETVAAFLDKYIK”, for which the “soluble on expression in E. coli” value is reported as “not soluble”.
Take “MLRRIKRFLGLSTHAYFPNNEVAPTADGSLISTMSRKSTKSERKAAKKEKKRSQLADTSAPAIFHVPTAPADIVTEGEGSTVGQGSEIDRRTVITDSLPYREPSDKVYMGSPPSTVPQAPESSSSTRSLVGSDSIKSRLESMTIDGTSSVLQHVDSLTNSVYSAEFCQEVDSQNTCDAKSRELPVDCDIPTATEPLPISTKSNPVSNSSLTYMADVKLILPDKRDEKSEEVAGMKQLNAELDGLLKTSAPPFQVSTARLPPMLRELPPPANDESMLSGNDEFDDSKNNSVARYLNESHEVMMRSPENKHLRSCGY”: the “soluble on expression in E. coli” value was “not soluble”.
For the sequence “MSLQQAVGMYVEAPTPDEAARLINSGRKLGIVIAVGVCEVFYTGRAAASLGPTRRLVILKRDGTLLVHEAEKAQPKIWNPPGSSTAAYVEGGKLVVKSIRSRPFETVRVIFDKVDFIAAFDVGATELTLVGSERDVVGALVKNPSIIEEGLEVVGVEVPTDVGHLDILARDKNGRYVIIEVKRDLATHEAVFQLARYVELYRRKGYDVRGILVAGDITASAYDYLKRYGLNFVKINPRELMVLTNKNPLNAKEGHHHHHH”, the “soluble on expression in E. coli” value is recorded as “soluble”.
In the case of “MSNEGSREESREPEAREGKSDEIFEVEKILAHKVTDNLLVLQVRWLGYGADEDTWEPEEDLQECASEVVAEYYKKLKVTDKTELIELLQKQIKKNKSQKSKKRSKTVSDHESNHDSDGSYGTPKTSKKSKKSAKNETPVSSKVPKVPTKAALKSYEATVSGPVAPNNAKKAAMEVRDTRRNWLDEESSDDEAETTAPLSDVEKIASKVKVVKAVEEKAEEPVKRPSTPPKPREVVIKKDPSESPVASASSVIPTSKRKSINAETSNGRQRTLAPPVIVKDETTWTVDGIARHTDVDNTKTKLILMTNSATGERKVVEGREAFELDGWALAKYLLDRCEF”, the “soluble on expression in E. coli” value is reported as “soluble”.
In the case of “MGSDKIHHHHHHMEGHIVITGATGVIGSEVARRLIKSGREVVVFARSPQSAAAKVPGAADYVRWDSDMAPDGWSSSIDGAYAVIHLAGRPLLETRWTEEHKVACYDSRIKGTRALVAAMASASVKPKVFVSSSAIGYYGSFDRCEETDPLTEKAAPGKDFLAKICFDWEKEARPAETLGTRVVLLRTGIVLSTKGGMLQKMMIPFSYFVGGPVGSGDQCLSWIHLDDEVSIILQALDNADWSGPVNAVAPEPVSMKAFADSLGLVMHRPSLFPVPKLAVQILLGEGADYAVKGQKVSPEFLKERDFHFAWPSLNEALADLVSRGI” it was “not soluble”; in that of “MSLKNIVFCGLSSRAFSMFIKPLMERFSTHYEITGLLDADPKRFAVCKKKFPELAHVPEFSEDAFDEMMRVSKPDIVIVAGRDDTHVAYIVKSLQWNTDVITEKPMVTTVQDANRVLEAEAKSEGKVTVAFNYRYSPFHRKIKEMILDGKIGRVTSVDLNWYIDTYHGASYFKRWNRSRQFSGGLSVHKSTHHFDLVNWWLGQNPEEVFAYGALNYYGPDSEWNPLPEEDGRFCGTCRVKEKCHYYSRWHPRSSKASIKDDHLEAGDQSSLYTAYRPDACIFDEEIDIEDTYVAAVKYDGGALLSYSIIFSAPYEGYRLTINGTKGRIESNEFHEPSRIPFAFPEQTIEYYPLFESKQTIQVVKNEGGHGGGDPLLLEDLFLGKDPLRRYDILAGAEAGAYSIAVGEGMWRSVAEKKPIGMKELFQMQNEGHHHHHH”, “soluble”.
With “SGTQALLVEERARLERLLGARLEAAADQALARLVEANPQPVHLICDLTHRLLACSPARAAQFGVPLGELLDRSLWPYCSEEILRQEATLEELGWRELLAPPALEFASGANASAIVPIRRSRCRWTRMTLSDGRAVRLVETL” the entry was “not soluble”; with “MSERIVPSGDVELWSDDFGDPADPALLLVMGGNLSALGWPDEFARRLADGGLHVIRYDHRDTGRSTTRDFAAHPYGFGELAADAVAVLDGWGVDRAHVVGLSMGATITQVIALDHHDRLSSLTMLLGGGLDIDFDANIERVMRGEPTLDGLPGPQQPFLDALALMNQPAEGRAAEVAKRVSKWRILSGTGVPFDDAEYARWEERAIDHAGGVLAEPYAHYSLTLPPPSRAAELREVTVPTLVIQAEHDPIAPAPHGKHLAGLIPTARLAEIPGMGHALPSSVHGPLAEVILAHTRSAA”, “soluble”; with “SYEQLKGEWNRKSPNLSKCGEELGRLKLVLLELNFLPTTGTKLTKQQLILARDILEIGAQWSILRKDIPSFERYMAQLKCYYFDYKEQLPESAYMHQLLGLNLLFLLSQNRVAEFHTELERLPAKDIQTNVYIKHPVSLEQYLMEGSYNKVFLAKGNIPAESYTFFIDILLDTIRDEIAGCIEKAYEKILFTEATRILFFNTPKKMTDYAKKRGWVLGPNNYYSFASQQQKPEDTTIPSTELAKQVIEYARQLEMIV”, “soluble”.
Regarding “MKFDTIINQPVIETERFDLRPLRKSDMGLIEHYARDERVARMTTSIPHPLPPGMAEGFVARAMSEERTEDVWAMDATRDGGPELMGLISLERMDRNQSEVGYWVAPVFWNTGIASMAVEALVNANPLGNATMFASVFQDNPASARVLTHCGFQYLGDAESYSVARDAAVPTWTYSRKL”, the “soluble on expression in E. coli” value is “not soluble”.
As to “MAAQVLSGHEAAEAVYEEIRARLRSLSFTPSLRVIRLGEDPASVAYVRLKDKRARALGYRSQVEVYPEDLPEEALLERIAALNADEEVDGILVQLPLPPHIRTQRVLEAIHPLKDVDGFHPLNVGRLWSGGKGLFPCTPLGVVRLLKHYGVDLRGKEVVVVGRSNIVGKPLAGLLLREDATVTLAHSKTQDLPEVTRRAQVLVVAVGRPHLVRKEWVREGAIVVDVGVNRVEGRLLGDVHPEVAEVAFALTPVPGGVGPMTVAMLMGNTLEAALLRRHGASG”, the “soluble on expression in E. coli” value is recorded as “soluble”.
For the sequence “MVGWRIVRIATHPEVQGRGIGSWLLERLYEESVERGYDWLGSGFGINEQLLRFWLRNGFLVLHLSPD”, the “soluble on expression in E. coli” value is on record as “not soluble”.
As to “MGSQSETVCVTGASGFIGSWLVMRLLERGYTVRATVRDPTNVKKVKHLLDLPKAETHLTLWKADLADEGSFDEAIKGCTGVFHVATPMDFESKDPENEVIKPTIEGMLGIMKSCAAAKTVRRLVFTSSAGTVNIQEHQLPVYDESCWSDMEFCRAKKMTAWMYFVSKTLAEQAAWKYAKENNIDFITIIPTLVVGPFIMSSMPPSLITALSPITGNEAHYSIIRQGQFVHLDDLCNAHIYLFENPKAEGRYICSSHDCIILDLAKMLREKYPEYNIPTEFKGVDENLKSVCFSSKKLTDLGFEFKYSLEDMFTGAVDTCRAKGLLPPSHEKPVDGKT”, the “soluble on expression in E. coli” value is given as “soluble”.
On to “MSEPLLIARTPDTELFLLPGMANRHGLITGATGTGKTVTLQKLAESLSEIGVPVFMADVKGDLTGVAQAGTVSEKLLARLKNIGVNDWQPHANPVVVWDIFGEKGHPVRATVSDLGPLLLARLLNLNDVQSGVLNIIFRIADDQGLLLLDFKDLRAITQYIGDNAKSFQNQYGNISSASVGAIQRGLLSLEQQGAAHFFGEPMLDIKDWMRTDANGKGVINILSAEKLYQMPKLYAASLLWMLSELYEQLPEAGDLEKPKLVFFFDEAHLLFNDAPQVLLDKIEQVIRLIRSKGVGVWFVSQNPSDIPDNVLGQLGNRVQHALRAFTPKDQKAVKAAAQTMRANPAFDTEKAIQELGTGEALISFLDAKGSPSVVERAMVIAPCSRMGPVTEDERNGLINHSPVYGKYEDEVDRESAYEMLQKGFQASTEQQNNPPAKGKEVAVDDGILGGLKDILFGTTGPRGGKKDGVVQTMAKSAARQVTNQIVRGMLGSLLGGRRR”, for which the “soluble on expression in E. coli” value was “soluble”.
For “MEIKEMVSLARKAQKEYQATHNQEAVDNICRAAAKVIYENAAILAREAVDETGMGVYEHKVAKNQGKSKGVWYNLHNKKSIGILNIDERTGMIEIAKPIGVVGAVTPTTNPIVTPMSNIIFALKTCNAIIIAPHPRSKKCSAHAVRLIKEAIAPFNVPEGMVQIIEEPSIEKTQELMGAVDVVVATGGMGMVKSAYSSGKPSFGVGAGNVQVIVDSNIDFEAAAEKIITGRAFDNGIICSGEQSIIYNEADKEAVFTAFRNHGAYFCDEAEGDRARAAIFENGAIAKDVVGQSVAFIAKKANINIPEGTRILVVEARGVGAEDVICKEKMCPVMCALSYKHFEEGVEIARTNLANEGNGHTCAIHSNNQAHIILAGSELTVSRIVVNAPSATTAGGHIQNGLAVTNTLGCGSWGNNSISENFTYKHLLNISRIAPLNSSIHIPDDKEIWEL”, the “soluble on expression in E. coli” value was “soluble”.
